Test results taken from patent US20150259419A1 (PROTHENA BIOSCIENCES, published 2015).
Changes are numbered by the printed parent chain.

T1: combination of human MCAM domains 1 and 2 (MCAMhFc domain construct) (human, UniProt P43121 19-242)
T1 construct: not shown: human Fc portion
T1 sequence: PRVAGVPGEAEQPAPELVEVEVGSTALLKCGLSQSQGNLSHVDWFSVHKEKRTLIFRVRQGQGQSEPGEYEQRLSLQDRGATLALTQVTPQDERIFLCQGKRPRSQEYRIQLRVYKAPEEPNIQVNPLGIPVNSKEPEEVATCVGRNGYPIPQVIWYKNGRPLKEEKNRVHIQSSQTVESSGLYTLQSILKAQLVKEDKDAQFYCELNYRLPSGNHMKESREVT

T2: human MCAM domain 2 (MCAMhFc domain construct) (human, UniProt P43121 139-242)
T2 construct: not shown: human Fc portion
T2 sequence: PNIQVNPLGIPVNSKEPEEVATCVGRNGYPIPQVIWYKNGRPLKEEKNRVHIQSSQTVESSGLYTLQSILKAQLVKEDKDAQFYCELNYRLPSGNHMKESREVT

T3: human MCAM domain 1 (MCAMhFc domain construct) (human, UniProt P43121 19-129)
T3 construct: also called amino acids 19-129; not shown: human Fc portion (captured on anti-human IgG Fc biosensors)
T3 sequence: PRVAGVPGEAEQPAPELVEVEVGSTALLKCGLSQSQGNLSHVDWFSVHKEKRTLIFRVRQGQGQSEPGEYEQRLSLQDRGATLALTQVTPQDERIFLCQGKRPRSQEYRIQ

T4: full length MCAMhFc protein (extracellular domain of human MCAM fused to human IgG) (human, UniProt P43121 24-559)
T4 construct: also called hMCAM-Fc; Human MCAM-Fc protein; not shown: human IgG (Fc) portion
T4 chain: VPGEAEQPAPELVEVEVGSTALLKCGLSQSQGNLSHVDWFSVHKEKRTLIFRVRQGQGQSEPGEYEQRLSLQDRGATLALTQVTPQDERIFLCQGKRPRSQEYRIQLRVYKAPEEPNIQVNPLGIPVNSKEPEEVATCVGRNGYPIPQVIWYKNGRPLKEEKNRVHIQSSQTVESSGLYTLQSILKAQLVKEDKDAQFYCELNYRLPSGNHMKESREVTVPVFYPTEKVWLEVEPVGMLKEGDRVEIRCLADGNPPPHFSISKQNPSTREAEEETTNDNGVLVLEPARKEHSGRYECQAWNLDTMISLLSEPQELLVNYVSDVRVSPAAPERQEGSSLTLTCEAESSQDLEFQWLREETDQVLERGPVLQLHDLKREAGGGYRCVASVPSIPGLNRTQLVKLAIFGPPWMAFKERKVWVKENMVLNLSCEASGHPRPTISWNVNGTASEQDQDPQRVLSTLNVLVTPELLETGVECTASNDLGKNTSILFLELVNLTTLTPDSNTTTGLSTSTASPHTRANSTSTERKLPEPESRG

T5: human MCAM domain 3 (MCAMhFc domain construct) (human, UniProt P43121 244-321)
T5 construct: also called amino acids 244-321; not shown: human Fc portion
T5 sequence: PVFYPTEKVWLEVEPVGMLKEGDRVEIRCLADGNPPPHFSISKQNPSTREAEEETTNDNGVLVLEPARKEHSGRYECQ

B1: mouse anti-human MCAM monoclonal antibody clone 1415.1.1 (antibody, V domains shown)
VH: QVQLQQPGAELVQPGAPVKLSCKASGYIFTSYWMNWVKQRPGRGLEWIGRIDPSDSKIHYNQKFKDKATLTVDRSSSTAYIQLGSLTSEDSAVYYCAKEGGLRRGDYAMDYWGQGTSVTVSS
VL: DIVMTQSPATLSVTPGDRVSLSCRASQSISDYLHWYQQKSHESPRLLIKYASQSISGIPSRFSGSGSGSDFTLSINSVEPEDVGVYYCQNGHNFPRTFGGGTKLEIK
notes: Mouse hybridoma antibody
B2: mouse anti-human MCAM monoclonal antibody clone 1414.1.2 (antibody, V domains shown)
VH: EIQLQQTGPELVKPGASVKISCKASGYSFTDYIMLWVKQSHGKSLEWIGNINPYSGSSGYNLKFKGKATLTVDKSSSTAYMQLNSLTSEDSAVYYCARGKDFAMDYWGQGTSVTVSS
VL: DIVMSQSPSSLAVSAGEKVTMSCKSSQSLLNSSTRKNFLAWYQQKPGQSPKLLIYWASTRESGVPDRFTGSGSGTDFTLTISSVQAEDLAVYYCKQSYNRYTFGGGTKLEIK
notes: Mouse hybridoma antibody
B3: mouse anti-human MCAM monoclonal antibody clone 1749.1.3 (antibody, V domains shown)
VH: DVKLVESGGDLVKPGGSLKLSCAASGFTFSSYIMSWVRQTPEKRLEWVATISSGGSSTYYPDSVKGRFTISRDNAKNTLYLQMSSLKSEDTAMYYCTRDDDYDVKVFAYWGQGTLVTVSA
VL: B2 VL with S22N, Q27R, S33R, T34I, F38Y, R100L, Y101L, G105A, I111L
notes: Mouse hybridoma antibody
B4: mouse anti-human MCAM monoclonal antibody clone 1174.1.3 (antibody, V domains shown)
VH: QIQLVQSGPELKKPGETVKISCKASGYTFTNYGMNWVKQAPGKGLKWMGWINTYTGEPTYADDFKGRFALSLETSASTAYLQINNLKNEDMATYFCARYRYNKYERAMDYWGQGTSVTVSS
VL: DIVLTQSPASLAVSLGQRATISCRASKSVSTSGYSYMYWYQQKPGQPPKLLIYLASNLESGVPARFSGSGSGTDFTLNIHPVEEEDAATYYCQHSRELPFTFGSGTKLEIK
notes: Mouse hybridoma antibody
B5: human MCAM, full length, expressed on transfected cells (receptor)
chain: VPGEAEQPAPELVEVEVGSTALLKCGLSQSQGNLSHVDWFSVHKEKRTLIFRVRQGQGQSEPGEYEQRLSLQDRGATLALTQVTPQDERIFLCQGKRPRSQEYRIQLRVYKAPEEPNIQVNPLGIPVNSKEPEEVATCVGRNGYPIPQVIWYKNGRPLKEEKNRVHIQSSQTVESSGLYTLQSILKAQLVKEDKDAQFYCELNYRLPSGNHMKESREVTVPVFYPTEKVWLEVEPVGMLKEGDRVEIRCLADGNPPPHFSISKQNPSTREAEEETTNDNGVLVLEPARKEHSGRYECQAWNLDTMISLLSEPQELLVNYVSDVRVSPAAPERQEGSSLTLTCEAESSQDLEFQWLREETDQVLERGPVLQLHDLKREAGGGYRCVASVPSIPGLNRTQLVKLAIFGPPWMAFKERKVWVKENMVLNLSCEASGHPRPTISWNVNGTASEQDQDPQRVLSTLNVLVTPELLETGVECTASNDLGKNTSILFLELVNLTTLTPDSNTTTGLSTSTASPHTRANSTSTERKLPEPESRGVVIVAVIVCILVLAVLGAVLYFLYKKGKLPCRRSGKQEITLPPSRKTELVVEVKSDKLPEEMGLLQGSSGDKRAPGDQGEKYIDLRH
notes: CHO cells transfected with the full length human MCAM gene; also called hMCAM; CD146

Tests used:
[1] = target: B5; assay: blocking of laminin 411 (20 ug/ml) binding to CHO cells expressing human MCAM, flow cytometry
Method: The 87 independent mouse fusion clones and 26 independent rat fusion clones described in Example 1 above as being capable of (i) binding to human MCAM, and (ii) blocking the interaction between human MCAM and the α-4 chain of laminin were further characterized as follows. First, IC50 quantitation for the ability of the monoclonal antibody to block the binding of human MCAM to the α-4 chain of laminin was determined as follows. CHO cells expressing human MCAM were incubated with an anti-human MCAM antibody (at various concentrations) for 30 minutes at 4 degrees Celsius. […] Unbound laminin was then washed away, and the laminin bound to the surface of the cells was detected with fluorescently labeled anti-laminin antibodies. After washing, the amount of laminin bound to the surface was detected by flow cytometry, and IC50s were calculated based on the mean fluorescent intensity.
Amino acid and nucleic acid sequences of the heavy and light chains of these antibodies, and their hypervariable regions, are provided in SEQ ID NOs:29-92. […] As such, each of these specific monoclonal antibodies was very capable of binding to human MCAM and inhibiting the interaction of cell-expressed human MCAM with its α-4 laminin binding ligand.

[2] = target: T1, combination of human MCAM domains 1 and …; assay: ForteBio Octet Red, MCAMhFc domains on anti-human IgG Fc biosensors
Text: (§1) The following protocol was used: ForteBio anti-human IgG Fc biosensors were used to immobilize various MCAMhFc domains including full length MCAMhFc protein on to biosensor surface. […] After loading these samples into a black 96 well plate, the Octet Red was programmed as follows: 60 seconds for baseline #1; 180 seconds for loading various domains; 60 seconds for baseline #2; 180 seconds for association of antibody to domain; and 240 seconds for dissociation of antibody from domain.
(§2) 1. MCAMhFc final concentration@5 ug/ml [0374] […] 3. ForteBio anti-human IgG Fc Capture (AHC) biosensors for kinetics experiments, cat #18-5060 [0376] 4. Block 96 well plate from Greiner Bio-one, cat #655209 [0377] 5. ForteBio Octet Red machine [0378] 6. Fresh tissue culture medium, DMEM with 20% FCS, was used as buffer for dilution

[3] = target: T2, human MCAM domain 2 (MCAMhFc domain …); assay: as above
Text: as §1, §2

[4] = target: T3, human MCAM domain 1 (MCAMhFc domain …); assay: as above
Text: as §1, §2

[5] = target: T4, full length MCAMhFc protein …; assay: summary of Examples 2 and 3
[6] = target: T5, human MCAM domain 3 (MCAMhFc domain …); assay: ForteBio Octet Red, MCAMhFc domains on anti-human IgG Fc biosensors, antibody at 5 ug/ml
Text: as §1, §2

recombinant laminin 511 = target: T6, recombinant laminin 511 (UniProt O15230 36-3695; P07942 22-1786; P11047 34-1609); assay: CHO cells transfected with human MCAM incubated with laminin, pan-laminin antibody, flow cytometry
T6 construct: also called laminin 10 (α5β1γ1)

| IC50 [1] [µg/mL] | binding result [2] | binding result [3] | binding result [4] | binding result [5] | binding result [6] | binding result (recombinant laminin 511) | Binder |
| --- | --- | --- | --- | --- | --- | --- | --- |
| 0.307 | no binding (tested: 5 ug/ml) | no binding (tested: 5 ug/ml) | no binding (tested: 5 ug/ml) | binds | binds | – | B1 |
| 0.431 | no binding (tested: 5 ug/ml) | no binding (tested: 5 ug/ml) | no binding (tested: 5 ug/ml) | binds | binds | – | B2 |
| 0.545 | no binding (tested: 5 ug/ml) | no binding (tested: 5 ug/ml) | no binding (tested: 5 ug/ml) | binds | binds | – | B3 |
| 0.469 | no binding (tested: 5 ug/ml) | no binding (tested: 5 ug/ml) | no binding (tested: 5 ug/ml) | binds | binds | – | B4 |
| – | – | – | – | – | – | no binding (tested: 10 µg/ml) | B5 |
